± gives the standard deviation of the averaged measurements.
What was measured:
[1] = system: MCF7; assay: percentage of EdU-negative (G0-arrested) nuclei per well, 72 h; higher = more G0 arrest; conditions: reference: sequence is the full UniProt precursor, the tested protein was the secreted form or ectodomain
[2] = system: hTERT-HMEC; assay: as above; conditions: reference: sequence is the full UniProt precursor, the tested protein was the secreted form or ectodomain
[3] = protein concentration 0.0125 µM
[4] = protein concentration 0.0225 µM
[5] = protein concentration 0.0143975 µM
[6] = protein concentration 0.0290625 µM
[7] = protein concentration 0.143975 µM
[8] = protein concentration 0.290625 µM
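Also: secreted proteins added to cultured cells, EdU pulse at the end, nuclei found by Hoechst imaging, EdU status from nuclear versus surrounding ring intensity ratio, PBS as neutral control.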

MDTRNKAQLLVLLTLLSVLFSQTSAWPLYRAPSALRLGDRIPFEGANEPDQVSLKEDIDMLQNALAENDTPYYDVSRNARHADGVFTSDFSKLLGQLSAKKYLESLMGKRVSSNISEDPVPVKRHSDAVFTDNYTRLRKQMAVKKYLNSILNGKRSSEGESPDFPEELEK
percentage of EdU-negative [1, 3]: 27.7 ± 3.4% | percentage of EdU-negative ([1]; protein concentration 0.125 µM): 22.42 ± 0.17% | percentage of EdU-negative [2, 3]: 5.76 ± 0.37% | percentage of EdU-negative ([2]; protein concentration 0.125 µM): 5.43 ± 0.065%

MDWSFFRVVAMLFIFLVVVEVNSEFRIQVRDYNTKNGTIKWHSIRRQKREWIKFAAACREGEDNSKRNPIAKIHSDCAANQQVTYRISGVGIDQPPYGIFVINQKTGEINITSIVDREVTPFFIIYCRALNSMGQDLERPLELRVRVLDINDNPPVFSMATFAGQIEENSNANTLVMILNATDADEPNNLNSKIAFKIIRQEPSDSPMFIINRNTGEIRTMNNFLDREQYGQYALAVRGSDRDGGADGMSAECECNIKILDVNDNIPYMEQSSYTIEIQENTLNSNLLEIRVIDLDEEFSANWMAVIFFISGNEGNWFEIEMNERTNVGILKVVKPLDYEAMQSLQLSIGVRNKAEFHHSIMSQYKLKASAISVTVLNVIEGPVFRPGSKTYVVTGNMGSNDKVGDFVATDLDTGRPSTTVRYVMGNNPADLLAVDSRTGKLTLKNKVTKEQYNMLGGKYQGTILSIDDNLQRTCTGTININIQSFGNDDRTNTEPNTKITTNTGRQESTSSTNYDTSTTSTDSSQVYSSEPGNGAKDLLSDNVHFGPAGIGLLIMGFLVLGLVPFLMICCDCGGAPRSAAGFEPVPECSDGAIHSWAVEGPQPEPRDITTVIPQIPPDNANIIECIDNSGVYTNEYGGREMQDLGGGERMTGFELTEGVKTSGMPEICQEYSGTLRRNSMRECREGGLNMNFMESYFCQKAYAYADEDEGRPSNDCLLIYDIEGVGSPAGSVGCCSFIGEDLDDSFLDTLGPKFKKLADISLGKESYPDLDPSWPPQSTEPVCLPQETEPVVSGHPPISPHFGTTTVISESTYPSGPGVLHPKPILDPLGYGNVTVTESYTTSDTLKPSVHVHDNRPASNVVVTERVVGPISGADLHGMLEMPDLRDGSNVIVTERVIAPSSSLPTSLTIHHPRESSNVVVTERVIQPTSGMIGSLSMHPELANAHNVIVTERVVSGAGVTGISGTTGISGGIGSSGLVGTSMGAGSGALSGAGISGGGIGLSSLGGTASIGHMRSSSDHHFNQTIGSASPSTARSRITKYSTVQYSK
percentage of EdU-negative ([1]; protein concentration 0.014 µM): 25.17 ± 0.14% | percentage of EdU-negative ([1]; protein concentration 0.14 µM): 28.1 ± 0.79% | percentage of EdU-negative ([2]; protein concentration 0.014 µM): 5.37 ± 1.1% | percentage of EdU-negative ([2]; protein concentration 0.14 µM): 5.1 ± 0.58%

MDYPTLLLALLHVYRALCEEVLWHTSVPFAENMSLECVYPSMGILTQVEWFKIGTQQDSIAIFSPTHGMVIRKPYAERVYFLNSTMASNNMTLFFRNASEDDVGYYSCSLYTYPQGTWQKVIQVVQSDSFEAAVPSNSHIVSEPGKNVTLTCQPQMTWPVQAVRWEKIQPRQIDLLTYCNLVHGRNFTSKFPRQIVSNCSHGRWSVIVIPDVTVSDSGLYRCYLQASAGENETFVMRLTVAEGKTDNQYTLFVAGGTVLLLLFVISITTIIVIFLNRRRRRERRDLFTESWDTQKAPNNYRSPISTSQPTNQSMDDTREDIYVNYPTFSRRPKTRV
percentage of EdU-negative [1, 4]: 25.5 ± 2.7% | percentage of EdU-negative ([1]; protein concentration 0.225 µM): 23.8 ± 1.8% | percentage of EdU-negative [2, 4]: 4.86 ± 0.72% | percentage of EdU-negative ([2]; protein concentration 0.225 µM): 5.13 ± 0.67%

MEACCLLQLPQRLLLLGAAALTATALETADLAELCGQTWQGDGLLLRSHAASRRFYFVAPDTDCGLWVQAAAPGDRIRFQFRFFLVYSLTPAPPALNTSSPAPADPCAPGSYLQFYEGPPGAPRPLGSPLCGLNIPVPVASSGPFLGLRLVTRGRQPRVDFVGEVTSFRLGPCGAYFRCQNGRCIPSSLVCDPWGMDNCGDGSDQGSWSPADCRGPSPVPSQTGSTDAHTSRSLTPSPALGSAGSLWIAAERSSPAGRDPTRQDAALEGSTE [Q5SZI1]
percentage of EdU-negative [1, 4]: 24.6 ± 1.8% | percentage of EdU-negative ([1]; protein concentration 0.225 µM): 25.3 ± 0.88% | percentage of EdU-negative [2, 4]: 5.13 ± 0.83% | percentage of EdU-negative ([2]; protein concentration 0.225 µM): 5.979 ± 0.048%

MEALMARGALTGPLRALCLLGCLLSHAAAAPSPIIKFPGDVAPKTDKELAVQYLNTFYGCPKESCNLFVLKDTLKKMQKFFGLPQTGDLDQNTIETMRKPRCGNPDVANYNFFPRKPKWDKNQITYRIIGYTPDLDPETVDDAFARAFQVWSDVTPLRFSRIHDGEADIMINFGRWEHGDGYPFDGKDGLLAHAFAPGTGVGGDSHFDDDELWTLGEGQVVRVKYGNADGEYCKFPFLFNGKEYNSCTDTGRSDGFLWCSTTYNFEKDGKYGFCPHEALFTMGGNAEGQPCKFPFRFQGTSYDSCTTEGRTDGYRWCGTTEDYDRDKKYGFCPETAMSTVGGNSEGAPCVFPFTFLGNKYESCTSAGRSDGKMWCATTANYDDDRKWGFCPDQGYSLFLVAAHEFGHAMGLEHSQDPGALMAPIYTYTKNFRLSQDDIKGIQELYGASPDIDLGTGPTPTLGPVTPEICKQDIVFDGIAQIRGEIFFFKDRFIWRTVTPRDKPMGPLLVATFWPELPEKIDAVYEAPQEEKAVFFAGNEYWIYSASTLERGYPKPLTSLGLPPDVQRVDAAFNWSKNKKTYIFAGDKFWRYNEVKKKMDPGFPKLIADAWNAIPDNLDAVVDLQGGGHSYFFKGAYYLKLENQSLKSVKFGSIKSDWLGC
percentage of EdU-negative [1, 5]: 23.9 ± 0.91% | percentage of EdU-negative [1, 6]: 26.7 ± 1.5% | percentage of EdU-negative [1, 7]: 25.25 ± 0.19% | percentage of EdU-negative [1, 8]: 27.8 ± 0.84% | percentage of EdU-negative [2, 5]: 4.84 ± 0.7% | percentage of EdU-negative [2, 6]: 5.59 ± 1.1% | percentage of EdU-negative [2, 7]: 9.87 ± 1.2% | percentage of EdU-negative [2, 8]: 4.97 ± 0.54%

MEALPLLAATTPDHGRHRRLLLLPLLLFLLPAGAVQGWETEERPRTREEECHFYAGGQVYPGEASRVSVADHSLHLSKAKISKPAPYWEGTAVIDGEFKELKLTDYRGKYLVFFFYPLDFTFVCPTEIIAFGDRLEEFRSINTEVVACSVDSQFTHLAWINTPRRQGGLGPIRIPLLSDLTHQISKDYGVYLEDSGHTLRGLFIIDDKGILRQITLNDLPVGRSVDETLRLVQAFQYTDKHGEVCPAGWKPGSETIIPDPAGKLKYFDKLN
percentage of EdU-negative [1, 4]: 26.1 ± 1.3% | percentage of EdU-negative ([1]; protein concentration 0.225 µM): 27.8 ± 0.15% | percentage of EdU-negative [2, 4]: 5.57 ± 1.3% | percentage of EdU-negative ([2]; protein concentration 0.225 µM): 4.84 ± 0.26%

Source: the supplement of paper PMC11316812
